Laboratory results taken from the supplement of paper PMC9170038.

System: MS2 coat protein
Experiment: apparent KD of MS2 coat protein; designed switch direction (-1 OFF switch, 1 ON switch): -1; higher = weaker reporter binding
Outline: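 Designed RNA switches were transcribed on Illumina chips by stalled E. coli RNA polymerase and titrated with SNAP-549-labelled MS2 coat protein from 0.7 or 1.5 nM, doubling to 3 µM. Step length ran from 0.8–1.5 h at the lowest concentration to 10–20 min at the highest. The apparent KD is the median over clusters for each design, from curve-fitted normalised cluster fluorescence.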

[1] = input ligand: microRNA oligo, concentration not stated
[2] = Eterna round: R95, input ligand: microRNA oligo, concentration not stated
[3] = Eterna round: R95, input ligand: FMN 200 uM
[4] = Eterna round: R95, input ligand: none

Sequence | apparent KD of MS2 coat protein (input ligand: FMN 200 uM) [nM] | apparent KD of MS2 coat protein [1] [nM] | apparent KD of MS2 coat protein (input ligand: none) [nM] | apparent KD of MS2 coat protein [2] [nM] | apparent KD of MS2 coat protein [3] [nM] | apparent KD of MS2 coat protein [4] [nM]
CUCCGGCGUGUAGGAUAUGGUUCCGUUUCGGUUCCAGAAGGACAUGAGGAUCACCCAUGUACAUGUCGUCGGUCGUCACCGGGC [salish99_ExNG1_r04_215] (Eterna round: R96, puzzle: Exclusion NG 1) | 120 | 21.7 | 35.4 | – | – | –
GUAAUACAUGAGGAUCACCCAUGUAAGGAUAUGCUAGCGGUCGGCUGACUGACUGCUAGCAGAAGGUACAUGAU [Mat - Mod of JL D77] (puzzle: Exclusion 1) | – | – | – | 87.2 | – | –
GGAGCUGGAGGAUAUACAAGAUCGAAAGAUCAAAGAUCCGUACAUGAGGAUCACCCAUGUAGAAGGCCAGCUCC (Eterna round: R97, puzzle: Exclusion 2) | 763 | – | 40.4 | – | – | –
CCUCGUAACUAGGAUAUCCGAAAUAAGCGAGGAGGAGAAGGAGUUACAUGAGGAUCACCCAUGUGAUAUAAAGA [Orisxe] (puzzle: Exclusion 6) | – | – | – | 15.5 | 46.9 | 17.4
UAAUUAAAUGUAGGAUAUCUGCACGUUUAGUGCAGAGAAGGACAUGAGGAUCACCCAUGUAGAUCAAAUUAAAUUAAUUUAAUU [ENG1/5-D2] (Eterna round: R96, puzzle: Exclusion NG 1) | 99.6 | 25.7 | 33.8 | – | – | –
GGUUUUUCUGAGGAUAUUGCAUCACCCGAUUUAUAAGAAGGCAGAACAUGAGGAUCACCCAUGUGGGUCUCUAG [Bingo-Bango-27] (Eterna round: R97, puzzle: Exclusion 6) | 24.4 | – | 15.7 | – | – | –
AUAAAUCAUGUAGGAUAUGCGUGGAGAAACUAUGCAGAAGGACAUGAGGAUCACCCAUGUGCUUCCGUCUGCGUACAGAUGGUA [Mat - Exclusion NG 1 - Mod of JL - D9] (Eterna round: R96, puzzle: Exclusion NG 1) | 134 | 20.1 | 27.3 | – | – | –
AGUAGGAGAGGAUAUACGAAGUCAAAAGACUUCAAUACUCAACAUGAGGAUCACCCAUGUAGAAGGCUCCUACA [Omei Ex2 BD A4] (Eterna round: R97, puzzle: Exclusion 2) | 22.9 | – | 19.4 | – | – | –
UAUAUAUAGUAAGGAUAUGUAUUAAUUAUAUAAACAGAAGGUACUGACAUGAGGAUCACCCAUGUUUUAGUGUGGGCAUGUAGA [JMF's solution 80] (Eterna round: R96, puzzle: Exclusion NG 1) | – | 65.8 | – | – | – | –
CGGGAGGGACAAGCUUUUUGCACGUCUGUUAUUGAUGCAACAUGAGGAUCACCCAUGUUUAGGGUGUGAGAGGAUGG [JR_SV3TOV2_Sub051] (puzzle: Sensor v3, turn-off variant 2) | – | – | – | 471 | 373 | 553
UCUGCAACGCAAGGAUAUCUUAGAGUUGAAGAAAGAGAAGGUGCAGGUGAUAACAUGCCCGUAACAUGAGGAUCACCCAUGUAA [Eternabot solution 48] (Eterna round: R96, puzzle: Exclusion NG 1) | 96.1 | 68.3 | 79.3 | – | – | –
AGCGUGGAGACAGGAUAUGAGAAUAGAUAGAACUCAGAAGGGUCACAUGAGGAUCACCCAUGUAAAGUCUUGAGGAUGAGUGGU [Prohibition 5 - Jieux - Exclusion NG 1] (Eterna round: R96, puzzle: Exclusion NG 1) | 119 | 29 | 51.1 | – | – | –
AUAACAUGCUGGUGAUCAUACAUGAGGAUCACCCAUGUAACAAGCUUUUUGCUCGUCUUAUAAGAUCACCAGCAUGU [Stov1/9-A2] (Eterna round: R97, puzzle: Sensor, turn-off variant 1) | 14.8 | – | 15.4 | – | – | –
AAGAAACAUGAGGAUCACCCAUGUGAGGAUAUGUAAAAUAAAAUAAAAGAAAUAAUAAACAGAAGGCACAAAGG [Mat - Mod of Hog D16] (puzzle: Exclusion 1) | – | – | – | 29.8 | 47.2 | 41.8
GGAUCGAGUGUGAGGAUAUGCUGGUCCUAAGAUCAGCAGAAGGCACAUGAGGAUCACCCAUGUGAAAACGGUCC [Mat - Exclusion 4 - JL Mod - D71] (puzzle: Brourd's mod of Exclusion 4) | – | – | – | 23.5 | – | –
UUAACAUGCUGGUGAUCAUACAUGAGGAUCACCCAUGUAACAAGCUUUUUGCUCGUCUUAUAAGAUCACCAGCAUGU [Stov1/9-A1] (Eterna round: R97, puzzle: Sensor, turn-off variant 1) | 14.7 | – | 12.2 | – | – | –
GUUACACAUGAGGAUCACCCAUGUAAGGAUAUGCUGCGGUCGCGCUGACGUGACUGCAGCAGAAGGUACACAUG (puzzle: Exclusion 1) | – | – | – | 86.8 | – | –
CAAACCUCAGGAUAUCGAGACUCGGACAUGAGGAUCACCCAUGUGAGGCUCGUGAGUCCACGAGAAGGGAGGAGCA [Eternabot (Original) Solution 38] (Eterna round: R97, puzzle: Exclusion 5) | 26.1 | – | 17.4 | – | – | –
